Experimental data from PMC7294093, “S-Glutathionylation of human inducible Hsp70 reveals a regulatory mechanism involving the C-terminal α-helical lid” (The Journal of Biological Chemistry, 2020).
Where “and” joins values, the source holds several entries; their conditions need not be identical. Identical values can stand only once. Ends that are not written are not given here. * marks the point of attachment. FITC = O=C1OC2(c3ccc(O)cc3Oc3cc(O)ccc32)c2ccc(NC(=S)*)cc21

Tests used:
Conditions in all cases: both partners purified
[1] = biological target: T1, WT hHsp70 (human HspA1A), full-length (residues 1–641) (human, UniProt P0DMV8 1-641); assay: fluorescence polarisation; steady state; 20 nM FAR with increasing hHsp70 (control, glutathionylated or deglutathionylated); 0.5 mM ADP in Buffer B (50 mM Tris-HCl pH 7.5, 100 mM KCl, 5 mM MgCl2); RT, 60 min; single site binding model
T1 construct: The deglutathionylated sample (glutathionylated, then 10 mM DTT) carries no modification and is written as this molecule; the label in the row tells which sample it was; also called HspA1A/B; untreated control (-C); source: monomeric peak collected

[2] = biological target: hHsp70 T204A (binds but does not hydrolyze ATP) (human, UniProt P0DMV8 1-641, T204A); assay: fluorescence polarisation; kinetic time course at RT; 20 nM FAR with 10 μM hHsp70 or mutant, apo or with ADP/ATP (1 mM; 0.5 mM ADP in Fig. 7C); 1 mM diamide with 1 mM GSH added at 60 min, 10 mM DTT at 120 min
[3] = biological target: hHsp70-CSSAC (hHsp70 C267S/C306S/C574A) (human, UniProt P0DMV8 1-641, C267S | C306S | C574A); assay: as above
[4] = biological target: hHsp70-CSSCA (hHsp70 C267S/C306S/C603A) (human, UniProt P0DMV8 1-641, C267S | C306S | C603A); assay: as above
[5] = biological target: hHsp70-CSSCC (hHsp70 C267S/C306S) (human, UniProt P0DMV8 1-641, C267S | C306S); assay: fluorescence polarisation; steady state; 20 nM FAR with increasing hHsp70 or mutant; apo (no nucleotide); Buffer B; RT, 60 min; single site binding model
hHsp70-CSSAS (hHsp70 …) = biological target: hHsp70-CSSAS (hHsp70 C267S/C306S/C574A/C603S) (human, UniProt P0DMV8 1-641, C267S | C306S | C574A | C603S); assay: as above
[6] = biological target: T1, WT hHsp70 (human HspA1A), full-length …; assay: as above
hHsp70-CSSAA (hHsp70 …) = biological target: hHsp70-CSSAA (hHsp70 C267S/C306S/C574A/C603A) (human, UniProt P0DMV8 1-641, C267S | C306S | C574A | C603A); assay: as above
hHsp70-CSSSS (hHsp70 …) = biological target: hHsp70-CSSSS (hHsp70 C267S/C306S/C574S/C603S) (human, UniProt P0DMV8 1-641, C267S | C306S | C574S | C603S); assay: as above
Sequence of hHsp70-CSSSS (hHsp70 C267S/C306S/C574S/C603S) (P0DMV8 whole entry C267S/C306S/C574S/C603S): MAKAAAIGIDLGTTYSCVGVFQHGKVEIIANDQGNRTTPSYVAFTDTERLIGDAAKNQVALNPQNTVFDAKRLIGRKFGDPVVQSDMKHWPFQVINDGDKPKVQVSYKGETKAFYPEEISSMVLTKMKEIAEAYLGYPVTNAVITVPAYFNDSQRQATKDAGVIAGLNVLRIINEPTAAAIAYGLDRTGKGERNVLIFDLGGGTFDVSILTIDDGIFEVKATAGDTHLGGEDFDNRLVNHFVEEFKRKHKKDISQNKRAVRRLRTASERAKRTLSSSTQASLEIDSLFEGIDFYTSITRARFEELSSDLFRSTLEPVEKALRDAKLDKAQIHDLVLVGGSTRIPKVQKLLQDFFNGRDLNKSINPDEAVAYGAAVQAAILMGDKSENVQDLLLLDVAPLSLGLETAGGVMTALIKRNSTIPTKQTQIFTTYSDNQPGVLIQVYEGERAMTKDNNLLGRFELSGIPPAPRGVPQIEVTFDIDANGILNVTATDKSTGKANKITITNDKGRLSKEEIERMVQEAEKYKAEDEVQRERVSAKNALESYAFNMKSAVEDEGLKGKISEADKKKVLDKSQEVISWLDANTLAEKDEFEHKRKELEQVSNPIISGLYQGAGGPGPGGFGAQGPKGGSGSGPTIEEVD

T1 sequence (P0DMV8 whole entry, the tested form may be a part): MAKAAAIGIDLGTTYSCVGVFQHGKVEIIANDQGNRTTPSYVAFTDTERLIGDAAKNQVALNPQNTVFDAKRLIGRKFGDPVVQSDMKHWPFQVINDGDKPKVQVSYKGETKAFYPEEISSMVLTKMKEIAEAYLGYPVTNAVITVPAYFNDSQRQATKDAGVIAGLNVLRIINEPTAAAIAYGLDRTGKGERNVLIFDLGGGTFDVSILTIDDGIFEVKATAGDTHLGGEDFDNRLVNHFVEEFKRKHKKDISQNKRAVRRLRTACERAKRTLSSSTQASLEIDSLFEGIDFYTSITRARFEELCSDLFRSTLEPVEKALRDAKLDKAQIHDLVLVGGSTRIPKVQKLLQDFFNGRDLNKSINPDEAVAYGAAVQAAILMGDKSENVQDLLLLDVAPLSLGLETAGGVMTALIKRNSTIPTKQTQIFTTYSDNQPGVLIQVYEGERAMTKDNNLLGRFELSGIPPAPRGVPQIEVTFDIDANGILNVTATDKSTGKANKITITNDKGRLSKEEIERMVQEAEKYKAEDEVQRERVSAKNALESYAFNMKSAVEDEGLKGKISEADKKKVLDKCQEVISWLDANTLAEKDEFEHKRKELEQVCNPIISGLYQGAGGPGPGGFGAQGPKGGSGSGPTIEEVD
Sequence of hHsp70-CSSAS (hHsp70 C267S/C306S/C574A/C603S) (P0DMV8 whole entry C267S/C306S/C574A/C603S): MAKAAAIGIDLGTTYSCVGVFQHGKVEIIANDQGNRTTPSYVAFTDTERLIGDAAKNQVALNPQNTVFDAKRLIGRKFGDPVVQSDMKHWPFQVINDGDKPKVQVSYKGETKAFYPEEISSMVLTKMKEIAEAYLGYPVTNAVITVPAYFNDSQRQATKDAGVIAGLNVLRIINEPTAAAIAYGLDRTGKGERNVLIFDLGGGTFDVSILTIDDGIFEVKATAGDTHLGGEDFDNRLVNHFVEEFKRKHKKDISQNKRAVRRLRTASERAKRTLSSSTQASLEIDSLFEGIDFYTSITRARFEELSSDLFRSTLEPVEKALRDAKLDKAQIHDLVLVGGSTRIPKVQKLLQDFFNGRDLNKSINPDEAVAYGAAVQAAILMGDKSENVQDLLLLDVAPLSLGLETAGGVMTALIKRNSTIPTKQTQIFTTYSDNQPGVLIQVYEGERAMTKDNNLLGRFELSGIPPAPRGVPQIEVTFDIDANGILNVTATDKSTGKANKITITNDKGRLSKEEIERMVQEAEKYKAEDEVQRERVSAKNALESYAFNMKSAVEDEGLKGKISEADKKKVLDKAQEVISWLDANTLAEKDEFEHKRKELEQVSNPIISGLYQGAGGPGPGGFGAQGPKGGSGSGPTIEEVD
Sequence of hHsp70-CSSCA (hHsp70 C267S/C306S/C603A) (P0DMV8 whole entry C267S/C306S/C603A): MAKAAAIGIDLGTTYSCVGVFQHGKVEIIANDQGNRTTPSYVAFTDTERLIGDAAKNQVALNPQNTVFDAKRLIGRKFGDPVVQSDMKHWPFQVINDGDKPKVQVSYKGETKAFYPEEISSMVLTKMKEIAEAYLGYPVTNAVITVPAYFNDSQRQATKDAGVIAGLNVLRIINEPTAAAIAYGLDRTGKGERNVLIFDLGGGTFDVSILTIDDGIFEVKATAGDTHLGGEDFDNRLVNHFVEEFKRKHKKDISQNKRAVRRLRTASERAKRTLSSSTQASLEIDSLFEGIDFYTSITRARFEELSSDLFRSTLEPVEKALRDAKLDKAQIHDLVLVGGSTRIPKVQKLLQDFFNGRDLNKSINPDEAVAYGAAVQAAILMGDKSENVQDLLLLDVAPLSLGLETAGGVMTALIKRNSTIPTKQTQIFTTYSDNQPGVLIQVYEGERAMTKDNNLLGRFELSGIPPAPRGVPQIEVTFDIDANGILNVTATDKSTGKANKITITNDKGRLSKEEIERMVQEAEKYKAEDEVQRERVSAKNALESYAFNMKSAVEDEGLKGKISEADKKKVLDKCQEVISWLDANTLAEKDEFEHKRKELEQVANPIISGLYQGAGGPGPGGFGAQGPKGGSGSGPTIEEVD
Sequence of hHsp70-CSSAC (hHsp70 C267S/C306S/C574A) (P0DMV8 whole entry C267S/C306S/C574A): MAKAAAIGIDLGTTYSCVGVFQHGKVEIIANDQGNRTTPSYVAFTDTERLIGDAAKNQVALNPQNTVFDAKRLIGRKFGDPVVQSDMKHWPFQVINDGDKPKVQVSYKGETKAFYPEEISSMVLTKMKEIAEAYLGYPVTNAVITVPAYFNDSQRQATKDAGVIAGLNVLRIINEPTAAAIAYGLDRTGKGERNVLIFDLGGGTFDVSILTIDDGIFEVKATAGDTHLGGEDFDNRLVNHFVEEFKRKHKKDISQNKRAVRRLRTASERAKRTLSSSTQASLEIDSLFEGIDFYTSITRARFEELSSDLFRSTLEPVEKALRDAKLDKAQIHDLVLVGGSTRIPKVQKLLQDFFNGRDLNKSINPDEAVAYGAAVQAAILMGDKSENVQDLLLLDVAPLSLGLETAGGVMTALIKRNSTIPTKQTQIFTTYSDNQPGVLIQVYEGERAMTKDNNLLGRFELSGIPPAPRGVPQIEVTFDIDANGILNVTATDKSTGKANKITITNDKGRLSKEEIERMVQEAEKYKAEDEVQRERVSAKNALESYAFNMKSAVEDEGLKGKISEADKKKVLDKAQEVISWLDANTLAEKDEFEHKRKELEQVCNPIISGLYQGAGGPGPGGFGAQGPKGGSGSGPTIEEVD
Sequence of hHsp70 T204A (binds but does not hydrolyze ATP) (P0DMV8 whole entry T204A): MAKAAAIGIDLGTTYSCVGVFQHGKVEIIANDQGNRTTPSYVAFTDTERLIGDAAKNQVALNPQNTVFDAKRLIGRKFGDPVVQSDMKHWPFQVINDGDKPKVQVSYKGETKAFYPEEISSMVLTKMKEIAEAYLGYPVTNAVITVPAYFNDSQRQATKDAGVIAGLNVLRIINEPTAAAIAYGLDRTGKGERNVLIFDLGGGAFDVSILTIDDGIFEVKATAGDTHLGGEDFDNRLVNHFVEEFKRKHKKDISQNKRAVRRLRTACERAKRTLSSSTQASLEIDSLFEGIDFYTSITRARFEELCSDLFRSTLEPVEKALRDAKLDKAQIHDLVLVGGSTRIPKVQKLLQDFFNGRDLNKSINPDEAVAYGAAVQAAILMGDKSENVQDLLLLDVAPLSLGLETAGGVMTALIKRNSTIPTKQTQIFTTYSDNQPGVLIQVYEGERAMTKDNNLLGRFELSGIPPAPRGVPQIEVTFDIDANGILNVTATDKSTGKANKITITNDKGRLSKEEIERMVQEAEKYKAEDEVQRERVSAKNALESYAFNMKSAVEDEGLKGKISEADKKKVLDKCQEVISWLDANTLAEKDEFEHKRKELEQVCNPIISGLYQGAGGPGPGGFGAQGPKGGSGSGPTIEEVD
Sequence of hHsp70-CSSAA (hHsp70 C267S/C306S/C574A/C603A) (P0DMV8 whole entry C267S/C306S/C574A/C603A): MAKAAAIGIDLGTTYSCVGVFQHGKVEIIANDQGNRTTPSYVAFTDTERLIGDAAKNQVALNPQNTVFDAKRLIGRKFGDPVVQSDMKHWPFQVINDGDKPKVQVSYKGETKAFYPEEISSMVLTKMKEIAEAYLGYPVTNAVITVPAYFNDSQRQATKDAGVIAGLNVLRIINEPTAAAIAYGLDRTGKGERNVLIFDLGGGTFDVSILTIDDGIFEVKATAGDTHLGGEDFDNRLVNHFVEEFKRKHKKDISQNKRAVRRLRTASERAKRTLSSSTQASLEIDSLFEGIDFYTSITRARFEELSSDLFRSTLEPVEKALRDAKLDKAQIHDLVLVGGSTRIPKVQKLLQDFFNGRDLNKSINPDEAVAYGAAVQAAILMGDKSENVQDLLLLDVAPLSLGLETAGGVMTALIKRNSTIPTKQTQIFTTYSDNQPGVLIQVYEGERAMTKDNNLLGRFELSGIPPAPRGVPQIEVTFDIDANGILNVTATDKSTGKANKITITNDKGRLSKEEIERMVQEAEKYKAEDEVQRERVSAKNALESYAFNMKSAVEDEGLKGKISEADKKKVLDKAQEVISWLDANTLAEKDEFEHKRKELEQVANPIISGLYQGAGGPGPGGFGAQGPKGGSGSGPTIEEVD

Kd [1]: 1070 nM and 1200 nM
binding result [2]: binds
binding result [3]: binds
binding result [4]: binds
Kd [5]: 1350 ± 230 nM
Kd (hHsp70-CSSAS (hHsp70 …)): 1440 ± 540 nM
Kd [6]: 1120 ± 120 nM
Kd (hHsp70-CSSAA (hHsp70 …)): 1190 ± 210 nM
binding result (hHsp70-CSSSS (hHsp70 …)): binds
Binder: {FITC}-ALLLSAPRR (fluorescently labeled peptide substrate) [FITC-labeled ALLLSAPRR (FAR) peptide]
